Data: paper PMC11673900 (Journal of Translational Medicine, 2024)

Target: GST-tagged PARP1, full-length (human, UniProt P09874 1-1014)
Assay: co-IP

Chain of GST-tagged PARP1, full-length (P09874 whole entry): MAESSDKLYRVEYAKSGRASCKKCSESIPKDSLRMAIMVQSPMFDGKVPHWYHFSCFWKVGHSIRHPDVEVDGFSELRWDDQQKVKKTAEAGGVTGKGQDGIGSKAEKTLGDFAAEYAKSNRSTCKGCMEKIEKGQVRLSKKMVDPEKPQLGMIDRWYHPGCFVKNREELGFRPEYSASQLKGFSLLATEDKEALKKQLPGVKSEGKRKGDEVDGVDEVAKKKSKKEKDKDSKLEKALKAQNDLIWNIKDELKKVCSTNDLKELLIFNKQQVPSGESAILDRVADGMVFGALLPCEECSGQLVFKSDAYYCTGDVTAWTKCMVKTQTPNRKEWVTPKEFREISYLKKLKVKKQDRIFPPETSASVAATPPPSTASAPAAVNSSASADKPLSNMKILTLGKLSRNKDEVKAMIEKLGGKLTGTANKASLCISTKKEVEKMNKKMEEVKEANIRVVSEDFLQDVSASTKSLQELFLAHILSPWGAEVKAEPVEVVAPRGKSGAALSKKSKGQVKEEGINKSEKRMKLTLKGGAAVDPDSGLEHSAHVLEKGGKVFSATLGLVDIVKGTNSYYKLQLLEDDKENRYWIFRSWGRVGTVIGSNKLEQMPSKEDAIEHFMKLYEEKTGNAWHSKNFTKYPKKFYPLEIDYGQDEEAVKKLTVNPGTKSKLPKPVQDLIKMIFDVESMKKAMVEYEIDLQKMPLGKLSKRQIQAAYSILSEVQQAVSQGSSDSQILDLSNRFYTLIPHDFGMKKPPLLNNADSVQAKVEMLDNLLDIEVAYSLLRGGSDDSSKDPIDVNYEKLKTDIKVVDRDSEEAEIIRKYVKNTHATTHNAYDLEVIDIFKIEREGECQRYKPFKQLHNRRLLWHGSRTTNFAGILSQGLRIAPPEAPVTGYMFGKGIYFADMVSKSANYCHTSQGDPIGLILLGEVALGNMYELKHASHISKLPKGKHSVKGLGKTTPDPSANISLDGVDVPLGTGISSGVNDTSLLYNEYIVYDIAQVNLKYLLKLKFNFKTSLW

- binding result: binds
B1: MBP-tagged NONO (natural protein, human, UniProt Q15233 1-471, looked up)
chain: MQSNKTFNLEKQNHTPRKHHQHHHQQQHHQQQQQQPPPPPIPANGQQASSQNEGLTIDLKNFRKPGEKTFTQRSRLFVGNLPPDITEEEMRKLFEKYGKAGEVFIHKDKGFGFIRLETRTLAEIAKVELDNMPLRGKQLRVRFACHSASLTVRNLPQYVSNELLEEAFSVFGQVERAVVIVDDRGRPSGKGIVEFSGKPAARKALDRCSEGSFLLTTFPRPVTVEPMDQLDDEEGLPEKLVIKNQQFHKEREQPPRFAQPGSFEYEYAMRWKALIEMEKQQQDQVDRNIKEAREKLEMEMEAARHEHQVMLMRQDLMRRQEELRRMEELHNQEVQKRKQLELRQEEERRRREEEMRRQQEEMMRRQQEGFKGTFPDAREQEIRMGQMAMGGAMGINNRGAMPPAPVPAGTPAPPGPATMMPDGTLGLTPPTTERFGQAATMEGIGAIGGTPPAFNRAAPGAEFAPNKRRRY
